Measured values: the DeepSol protein solubility set

Experiment: soluble on expression in E. coli; label from the status in PepcDB or PDB records

Row | Sequence | soluble on expression in E. coli
1 | MGSDKIHHHHHHMTQCPLVSISCLTYNHAPYLRQCLDGFVMQITSFPIEILIYDDASGDGTQNIIEEYQKKYPDIIKPIYQTENQYSKGVKVGFVYNYSRAKGEYIAFCEGDDYWTDPYKLQKQIDFLECYSDYVICSHRYRICLKEEKVMNDEIKPIGDLSDGMSFDLSFLIRGGWLFQPLSVVYRKSALDLDTYSKYAIYIDVALFYAILKNGKGYCMPDVMGVYRIHEKGVWSGLDLNHQRIFSLKAREAIYDVEKTDEAAMFILSQFSRPMGRFLVVKECSMFMRITKILISHFGLRFVLRMWFDRLFLNKKLCVNEFYQIKDFCKRKKNG | not soluble
2 | ARPKGIRIGYLPQVMRLQDGHTVYEEVEQAFNDIRQIEEEIRRLSDEMAGRTDYESDDYIRLIEHYTNMSETLSLMQQGNYHAAIEQTLIGLGFGREDFHRPTADFSGGWRMRIELAKLLLQRPEVLLLDEPTNHLDIESIGWLEQFIATNAGAVILVSHDRAFIDNTTTRTIEIELGHIYDYKTNYSHYVELREERLRQQMRAYENQQKMIRDTEDFIERFRYKATKSVQVQSRIKQLEKVERVEIDERDRSAFHFRFIPAQPSGSYP | not soluble
3 | MSDISRGDIRVKGFTDSEMDFQLIRQLGSSSYRAASVGECLNIANTMKNEDPEEWVRQFERLAEWQKKDGLERMVKNHVISGREQLFKASNSFRAAEYYSPPSSEHHRKLGLNSADCFCTAISSMDIHFENHSIPYKNINLPCYFISPANDGEKRDTVMIVSGFDGTLEEEFLMRGLAAVERGYNVIHFAGPGQMDVFRKYPDTYFEPDFEQVVKRIINYFEFRQEINMAKLTLMGISFGGYFATRAASHEPRIKVLIANSPILDLHAYMCSFVKMDPCEMPDSEDFSINDLPSIPNEVMPPQLKAQTEHLIRRFGQPTFKATFHYLREFTVGDSLNHIKIPCLALLGSGEGGEPGKQFAEFCKITNSAQYEFSDFEGAGSHCQVGNVSYSNAVVYDWLDSL | not soluble
4 | MGSDKIHHHHHHMQLEELINQHYSKLNDNDFHILKYILNHKHTCYHLGIDALAKACSVSRSSILRLAQKLGFSGYSEFRVFLKWEDQPEEGESMSFEKLLDDIEANLKFLRTKDMTDMCQLIDAADRIFVYGSGNAQKICARDLQRMFIPRHRYLILIEDTNEFNLMRDDFKVNDLFIIISLSGETPELIPQARMLSAKGIPFISITNLKNNVLAQLTPHNLYATSKPVTLSDRTEIVAFAPFFLVGEALFRAYVDYKEAEKNDNE | not soluble
5 | MGHHHHHHSHMFYLAAAVSDFYVPVSEMPEHKIQSSGGPLQITMKMVPKLLSPLVKDWAPKAFIISFKLETDPAIVINRARKALEIYQHQVVVANILESRQSFVFIVTKDSETKLLLSEEEIEKGVEIEEKIVDNLQSRHTAFIGDRN | not soluble
6 | MGSSHHHHHHSSGRENLYFQGHMSCTTDKLIQKYDALVRKTTEHKFAKELCAGTLKDRSLYIYLSQDLQFFETSLRLICKTTSLAPTTHALITLAKKIGFFSNDENSYFHDCLELLAPSLTKEERDNFDNKAIPGVDAYINFLDELRKDASITWPSLVTSLWVAEELYWRWARDTPRAPGLHWKYQKWIDLHDGEHFQTWCEFLKAEVDKFPVEEVESIFVKVSQFEFEFFESCYNA | soluble
7 | MGSSHHHHHHSSGLVPRGSHMKWDYDLRCGEYTLNLNEKTLIMGILNVTPDSFSDGGSYNEVDAAVRHAKEMRDEGAHIIDIGGESTRPGFAKVSVEEEIKRVVPMIQAVSKEVKLPISIDTYKAEVAKQAIEAGAHIINDIWGAKAEPKIAEVAAHYDVPIILMHNRDNMNYRNLMADMIADLYDSIKIAKDAGVRDENIILDPGIGFAKTPEQNLEAMRNLEQLNVLGYPVLLGTSRKSFIGHVLDLPVEERLEGTGATVCLGIEKGCEFVRVHDVKEMSRMAKMMDAMIGKGVK | soluble
8 | MGSDKIHHHHHHMKMATTHQSSTKQDILEYLHKHEKATALELAEVLDVTPQAIRRHLKDLETEELVLYSTSVQAAGMGRPQHLYELSRQGRDRLHRTMSDRFGDASGNFAVSLLDTLAETVGHDQFKSILEKQWQRKAKEYRDRVGNGSLRERVANLVELRKAEGFMAEYHAVDVNDTFESDRFILMEHNCAISNVAESFPSICGHELEMFAAVLPDCTVERTHWIIDGEHRCGYLVQVRH | not soluble
